Laboratory results taken from the nanobody polyreactivity screen of Harvey et al. (2022).

Assay: yeast display, Sf9 membrane polyspecificity reagent, FACS + sequencing; frameworks hold sequencing errors
How it was run: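 After 36–48 hours of galactose induction, yeast (Saccharomyces cerevisiae BJ5465) displaying a synthetic nanobody library were stained at 4 °C for 1 hour with 10% biotinylated, detergent-solubilized Sf9 membrane reagent. Streptavidin microbeads enriched the stained cells before FACS sorting into low and high (top ~1%) gates on anti-HA and streptavidin fluorescence. Each clone's polyreactivity label reflects its gate of origin.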

Sequence	polyreactivity (PSR sort gate)
QVQLVESGGGLVQAGGSLRLSCAASGSIFGYYAMGWYRQAPGKEREFVAAISWSGGRTTYADSVKGRFTISRDNAKNTVYLQMNSLKPEDTAVYYCAAAARRKFYYWGQGTQVTVSS	high polyreactivity
QVQLVESGGGLVQAGGSLRLSCAASGSIFAWYAMGWYRPAPGKERELVATITWSGGSTYYADSVKGRVTISRDNAKNTVYLQMNSLKPEDTAVYYCAAEVLGIWYDLWDQGDYGGQGTQVTVSS	low polyreactivity
QVQLVESGGGLVQAGGSIRLSCAASGINFYGNAMGWYRQAPGKETELVAAISWSGSSTYYADSVKGRFTISRDNAKNTVYFQMLSLKPEDTAVYYCKKATSSVRYLIYYYWGQGTQVTVSS	high polyreactivity
QVQLVESGGGLVQAGGSLRLSCAASGRIFEDYAMGWYRQAPGKERELVAAISSGGSTYADSVKGRFTISRDNAKNTVYLQMNSLKPEDTAVYYCAAYYRRSTYYYWGQGTQVTVSS	high polyreactivity
QVQLVESGGGLVQAGGSLRLSCAASGLTFSCYAMGWYRQAPGKERELVASINYSGANTYYADSVKGRFTISRDNAKNTVYLQMNSLKPEDTAVYYCNTRRRRYQNERVTYDYWGQGTQVTVSS	high polyreactivity
QVQLVESGGGLVQAGGSLRLSCAASGRTLLLNTMGWYRQAPGKERELVAAISWRDGSTYYADSVKGRFTISRDNAKNTVYLQMNSLKPEDTAVYYCNARLSGRSPYDLRFDYWGQGTQVTVSS	low polyreactivity
QVQLVESGGGLVQAGGSLRLSCAASGSTFAYYAMGWYRQAPGKERELVAAISASGSRTYYADSVKGRFTISRDNAKNTVYLQMNSLKPEDTAVYYCAALQYRRKIPTAYAGDYWGQGTQVTVSS	high polyreactivity
QVQLVESGGGLVQAGGSLRLSCAASGFTFCRNTMGWYRQAPGKEREFVAAIDWSGGSTTYADSVKGRFTISRDNAKNTVYLQMNSLKPEDTAVYYCAADERRRHYWWGQESDYWGQGTQVNVSS	low polyreactivity
QVQLVESGGGLVQAGCSLRLSCAASGGTFSLNAMGCYRQAPGKERELVAAITWTGDRTYYADSVKGRFTISRDNAKNTVYLQMNSLKPEDTAVYYCAAVGGYYPGDYWGQGTQVTVSS	low polyreactivity
QVQLEESGGGLLQAGGSLRLSCAASGRTLGGYTMGWYRPAPGKERELVSAITTGGSTNYADSVKGRFTISRDNAKNTVYLQMNSLKPEDTAVYFCATELVFDKRYWYDYWGQGSQVTVSS	low polyreactivity
QVQLVESGGGLVQAGGSLRLSCAASGRTFPGYAMGWYRQAPGKERELVATITGNGGSTYYADSVKGRFTISRDNAKNTVYLQMNSLKPDDTAVYYCAAGRRRPYVRAYSGTDYWGQGTQVTVSS	low polyreactivity
QDQLVESGGGLVQAGGSLRLSCAASGRTFTYYAMGWYRQAPGKDRELDAGISSGGGSTYYADSVKGRFTISRDHAKNTVYLQMNSLKPEDTAVYYCATAKRQGGYSEYDYWGQGTQVTVSS	high polyreactivity
QVQLVESGGGLVQAGGSLRLSCAASGSIYSYNVMGWYRQAPGKERELVAAITRSGGSTYYADSVKGRFTISRDNAKNTVYLQMNSLKPEDTAVYYCATAYYSTPFREYSYWGQGTQVTVSS	low polyreactivity
QVQLVESGVGLVQAGGSLRLSCAASGRIFCYYAMGWYRQAPGKERELVATINGGGSTNYADSVKGRFTISRDNAKNTVYLQMNSLKPEDTAVYYCAAAQWAYWLLYKYWGQVTQVTVSS	low polyreactivity
QVQLVESGGGLVQAGGSLRLSCAASGSILGDNAMGWYRQAPGKERELVAAISYRGGSTYADSVKGRFTISRDNAKNTVYLQMNRLKPEDTAVYYCNITDIDDSQYREYEYWGQGTQVTVSS	low polyreactivity
QVQVVESGGGLVQAGGSLRLSCAASGSIFNQYAMGWHRQAPGKERELVAAISSDGGRTYYADSVKGRFTISRDNAKNTVYLQMNSLKPEDTAVYYCNADFPAYGLQGDDYWGQGTQVTVSS	low polyreactivity
QLQLVESGGGLVQAGGSLRLSCAASRRIFDRNAMGWYRQAPGKERELVARIDPGDDTNYADSVKGRFTISRDNAKNTVSLQMNSLKPEDSAVYYCATDPDYVLYRTAYYEYDYWGLGTQVTVSS	low polyreactivity
QVQLVESGGGLVQAGGSLRLSCAASGRIFGTYAMGWYRQAPGKERELVAAITRDGSTNYADSVKGRFTISRDNAKNTVYLQMYSLKTEDSAVYYCAAGYLPDPDDYDSWGQGTQVNVSS	low polyreactivity
QVQLVESGGGLVQAGGSLRLSCAASGSTFGINDMGWSRQAPGKEREFVAAISSTTDSTRYADSVKGRFTISRDNAKNTVYLQMNSLKPEDTAVYYCAAAPQFTFGVGYWGQGTQVTVSS	low polyreactivity
QVQLVESGGGLVQAGGSLRLSCAASGSTFWSYTMGWYRQAPGKERELVARITGRGGSTYYADSVKGRFTISRDNAKNTVYLLMNSLKPEDTAVYYCAAGGGRYGFYRFDYWGQGTQVTVSS	low polyreactivity
QVQLVESGGGLVKAGGSLRLSCAASGRIFDYNAMGWYRQAPGKERELVAAISYSGGGTYYADSVKGRFTISRDYAKNSVYFQMNSLKPEDTAVYYCAKPYYQYYYISYDYWGQGTQVTVSS	low polyreactivity
QVQLVESVVGLVQARGTLRLSGATTGNTFYKNTMRWYRQPHGKERELVAAISQRGTRTYYADSVQGRFTISRDYAKNTVYLQMNSLKPEDTAVYYCPTVMSQVGFDYWGQGTQVTVSS	high polyreactivity

Sequence	polyreactivity (PSR sort gate)
QVQLVESGGGLVQAGGSLRLSCAASGFIFGLYAMGWYRQAPGKERELVATISWDGGSTYYADSVKGRFTISRDYAKNTVYLQMNSLKPEDTAVYYCAATYLYRSPYVPMDYWGQGTQVTVSS	low polyreactivity
QVQLVESGGGLVQAGGSLRLSCAASGLTSIHYMGWSRQAPGKERELVATITSSTGSTYYADSVKGRFTISRDNAKNTVYLQMNSLKPEDTAVYYCAAESFGADGPYQPSYDYWGQGTQVTVSS	low polyreactivity
QVQLVESGGGLVQAGGSLRLSCAASGSIFVEYAMGVYREAPGKERELVATINLSAGSTYYADSVKGRFTISRDNAMNTGYLQMNRLKPEDTAVYYCAALYYWDQPQLEFSYLGQGTQVTVSS	low polyreactivity
QVQLVESGGGLVQAGGSLRLSCAASGRIFSSYAMGWYRQAPGKERELVAAISKSGGNTYYADSVKGRFTISRDNAKNTVYLQMNSLKPEDTAVYYCDAVAPYTLYFWLYYWGQGTHVTVSS	high polyreactivity
QVQLVESGGGLVQAGGSLRLSCAASGRTFGRYAMGWYRQAPGKERELVADITGGGSTNYADSVKGRFTISRDNAKNTVYFQMNSLKPEDTAVYYCNAGILSRWVRKYYYWGQGTQVTVSS	low polyreactivity
QVQLVESGGGLVQAGGSLRLSCAASGIIFVKNAMGWYRPAPGKERELVAAISDNADSTYYADSVKGRFTISRDNAKNTVYLQMNSLKPEDTAVYYCAADWVHRTWLFWYTKYDYWGQGTQVTVSS	low polyreactivity
QVQLVESGGGLVQAGGSLRLSCAASGRIFHFYAMGWYRQAPGKERELVAAITSRTGNTYYADSVKGRFTISRDNAKNTVYLQMNSLKPEDTAVYYCAAKLVNALLHYRNWNHINYWGQGTQVTVSS	low polyreactivity
QVHLGETGGALVQAGGRLRLSCAASGITLGAYAMGWYRQAPGKERELVARIRIGGSTYYADSVKGRFTISRDYAKNTVFLQMNSLKPEDTAVYYCNALYRYLYRSGDYWGQGTQVTVSS	low polyreactivity
QLQLVESGRGLVQAGGSLRLSCAASGRTFYGYDMGWYRPAPGKERELVATISSGGSTNYADSVKGRFTISRDNAKNTVYLQMNSLKPEDTAVYYCNADSYEYPSPYRYYYLGYDYWGQGTQVTVSS	low polyreactivity
QVQLVESGGGLVQAGGSLRLSCAASGFTFFINGMGWYRQAPGKERELVAAIRSSGASTYDADSVKGRFTISRDNAKNTVYLQMNSLQPEDTAVYYCAVPLGAVGGPVDYWGQGTQVTVSS	low polyreactivity
QVQLVESRGGLVQAGGSLRLSCAASGYIFSYNAMGCYRQAPGKERELVAATSSRGGSTYYADSVKGRFTISRDNAKNPDYLQMNSLKPEDTAVYFCAVSSRRVDTEPYDYWGQGTQVTVSS	high polyreactivity
QVQLVESGGGLVQAGGSLRLSCAASGSTFLYYEMGWYRQAPGKDRELVAAISASGGSTYYADSVKGRFTISRDNAKSTVYLQMNSLKPEDTAVYYCAAVYHWVRPILYYWGQGTQVTVSS	high polyreactivity
QVQLVESGGGLGQAGGSLRLSCAASGFILRYNAMGWYRQAPGKERELVAAISYTGDRTYYADSVKGRFTISRDNAKNTVYLQMNSLKPEDTAVYYCKAGKGQRALVRIGSKLMYYWGHGTQVTVSS	high polyreactivity
QVQLVESGGGIVQAGGSLRLSCAASGSIYGYAMGWYRQAPGKERELVAAISGRGGRTYYADSVKGRFTISRDNAKNTVYLQMNSLKPEDTAVYYCNVQWRYPYHYTVDYWGQGTQVTVSS	high polyreactivity
QVQLVESGGGLVQAGGSLRLSCAASGSTFGYNAMGWYRQAPGKERELVAAIRRSGGSTYYADSVKGRFTISRDNAKNTVYLQMNSLKPEDTAVYYCAAAGGKRHEYWGQGTQVTVSS	high polyreactivity
QVQLVESGGGLVQAGGSLRLSCAASGRTLRYYAMGWYRQAPGKERELVASISIGGSTFYADSVKGRFTISRDNAKNTVYLQMNSLKPEDTAVYYCAAENFWQTKEYDYWGQGTQVTVSS	low polyreactivity
QVQLQESGGGLVQAGGTLRLSCAASGSIYDDTYMGWYRQAPGKERELVATIDSGSTTNYADSVKGRITISRDNAKKTVYLQMNSLKPEDTAVYYCAAADSHIDYFDYWGQGTQVTVSS	low polyreactivity
QVQLVESGGGLVQAGGSLRLSCAASGSTFGWYTMGWYRQAPGKERELVAAINYSGGSTYYADSVKGRFTISRDNAKNTVYLQMISLKPEDTAVYYCAADGTWSIYGGLYYWGQGTQVTVSS	low polyreactivity
QVQLVESGGGLVQAGGSLRLSCAASGITFWYYAMGWYRQEPGKERELVAAISSSGGRTTYADSVKGRFTISRDNAKNTVYLQMNSLKPEDTAVYYCNADRRRYQHRRGSSVYLYDYWGQGTQVTVSS	high polyreactivity
QVQLVESGGGLVQAGGSLRLSCAASGSILYHYAMGWYRQAPGKERELVAGISWRGGSTYYADSVKGRFTISRDNAMNTVYLQMNSLKPEDTAVYYCATLRYPYRFYAFQYYYWGQGTQVTVSS	low polyreactivity
QVQLVESGGGLVQAGGSLRLSCAASGRTFPYNDMGWYRQAPGKERQLVAGISLSGGSTFYADSVKGRFTISRDNAKKTVYLQRNSLKAEDTAVYYCNAPGGRYVWTDDYDYWGQGTQVTVSS	high polyreactivity
